Data reported in patent publication US20030157554A1 (published 2003).
Where two headings read alike, the source gives them in different places. Blank lines part the entries; values can stand above or below the binder they belong to.

B2: FHOS (Genbank ID: AF113615) (other, human, UniProt Q9Y613 964-1164, looked up)
chain: TPQAAREVRIMQFCHTLREFALEYRTCRERVLQQQQKQATYRERNKTRGRMITETEKFSGVAGEAPSNPSVPVAVSSGPGRGDADSHASMKSLLTSRPEDTTHNRRSRGMVQSSSPIMPTVGPSTASPEEPPGSSLPSDTSDEIMDLLVQSVTKSSPRALAARERKRSRGNRKSLRRTLKSGLGDDLVQALGLSKGPGLEV
notes: range 964-1164; Prey from muscle library
B6: ATPase (ATP6N1) (Genbank ID: u73006) (other, human, UniProt Q93050 1-300, looked up)
chain: MGELFRSEEMTLAQLFLQSEAAYCCVSELGELGKVQFRDLNPDVNVFQRKFVNEVRRCEEMDRKLRFVEKEIRKANIPIMDTGENPEVPFPRDMIDLEANFEKIENELKEINTNQEALKRNFLELTELKFILRKTQQFFDEMADPDLLEESSSLLEPSEMGRGTPLRLGFVAGVINRERIPTFERMLWRVCRGNVFLRQAEIENPLEDPVTGDYVHKSVFIIFFQGDQLKNRVKKICEGFRASLYPCPETPQERKEMASGVNTRIDDLQMVLNQTEDHRQRVLQAAAKNIRVWFIKVRKM
notes: range 1-~300; Prey from liver library; end of the fragment approximate; also called Vacuolar-type H(+) ATPase; ATP6N17
B7: S100A9 (Genbank ID: M26311) (other, human, UniProt P06702 1-114, looked up)
chain: MTCKMSQLERNIETIINTFHQYSVKLGHPDTLNQGEFKELVRKDLQNFLKKENKNEKVIEHIMEDLDTNADKQLSFEEFIMLMARLTWASHEKMHEGDEGPGHHHKPGLGEGTP
notes: range 1-114; Prey from liver and muscle libraries
B8: NAPA1 (Genbank ID: U39412) (other, human, UniProt P54920 1-295, looked up)
chain: MDNSGKEAEAMALLAEAERKVKNSQSFFSGLFGGSSKIEEACEIYARAANMFKMAKNWSAAGNAFCQAAQLHLQLQSKHDAATCFVDAGNAFKKADPQEAINCLMRAIEIYTDMGRFTIAAKHHISIAEIYETELVDIEKAIAHYEQSADYYKGEESNSSANKCLLKVAGYAALLEQYQKAIDIYEQVGTNAMDSPLLKYSAKDYFFKAALCHFCIDMLNAKLAVQKYEELFPAFSDSRECKLMKKLLEAHEEQNVDSYTESVKEYDSISRLDQWLTTMLLRIKKTIQGDEEDLR
notes: Full-length bait; Gal4-BD fusion
B9: Synphilin (Genbank ID: AF076929) (other, human, UniProt Q9Y6H5 335-660, looked up)
chain: PHLAADNLDKIHDENGNNLLHIAASQGHAECLQHLTSLMGEDCLNERNTEKLTPAGLAIKNGQLECVRWMVSETEAIAELSCSKDFPSLIHYAGCYGQEKILLWLLQFMQEQGISLDEVDQDGNSAVHVASQHGYLGCIQTLVEYGANVTMQNHAGEKPSQSAERQGHTLCSRYLVVVETCMSLASQVVKLTKQLKEQTVERVTLQNQLQQFLEAQKSEGKSLPSSPSSPSSPASRKSQWKSPDADDDSVAKSKPGVQEGIQVLGSLSASSRARPKAKDEDSDKILRQLLGKEISENVCTQEKLSLEFQDAQASSRNSKKIPLEKR
notes: range 335-~660; Prey from kidney library; end of the fragment approximate; also called Synphilin I; Synphilin 1
B10: LZIP (Genbank ID: AF029674) (other, human, UniProt O43889 1-371, looked up)
chain: MELELDAGDQDLLAFLLEESGDLGTAPDEAVRAPLDWALPLSEVPSDWEVDDLLCSLLSPPASLNILSSSNPCLVHHDHTYSLPRETVSMDLESESCRKEGTQMTPQHMEELAEQEIARLVLTDEEKSLLEKEGLILPETLPLTKTEEQILKRVRRKIRNKRSAQESRRKKKVYVGGLESRVLKYTAQNMELQNKVQLLEEQNLSLLDQLRKLQAMVIEISNKTSSSSTCILVLLVSFCLLLVPAMYSSDTRGSLPAEHGVLSRQLRALPSEDPYQLELPALQSEVPKDSTHQWLDGSDCVLQAPGNTSCLLHYMPQAPSAEPPLEWPFPDLFSEPLCRGPILPLQANLTRKGGWLPTGSPSVILQDRYSG
notes: range 1-372; Prey from liver and muscle libraries; also called LIZP

Legend:
[1] = target: the molecule itself; assay: Y2H 1x1 mating, binder AD fusion, target BD fusion
[2] = target: T1, S100A6 (Genbank ID: M14300) (human, UniProt P06703 1-90); assay: Y2H 1x1 mating, binder AD fusion, target BD fusion
[3] = target: B6; assay: Y2H 1x1 mating, binder AD fusion, target BD fusion
[4] = target: B9; assay: Y2H 1x1 mating, binder AD fusion, target BD fusion
[5] = target: the molecule itself; assay: Y2H 1x1 mating, binder AD fusion, target BD fusion; remark: listed apart in the source
[6] = target: B9; assay: Y2H 1x1 mating, binder AD fusion, target BD fusion; remark: listed apart in the source
[7] = target: B8; assay: Y2H library screen, binder bait, target prey
[8] = target: B10; assay: Y2H 1x1 mating, binder AD fusion, target BD fusion
[9] = target: the molecule itself; assay: Y2H 1x1 mating, binder AD fusion, target BD fusion; remark: listed apart in the source
[10] = target: the molecule itself; assay: Y2H, baits tested against each other
[11] = target: T1, S100A6 (Genbank ID: M14300); assay: Y2H 1x1 mating, binder AD fusion, target BD fusion; remark: listed apart in the source
[12] = target: T2, Fibrinogen (Genbank ID: M58569), S100A1 interactor (human, UniProt P02671 345-545, limits assumed); assay: Y2H 1x1 mating, binder AD fusion, target BD fusion
T2 construct: range 345-~545; Prey from liver library found with S100A1; also called fibrinogen alpha subunit
T2 sequence (looked up): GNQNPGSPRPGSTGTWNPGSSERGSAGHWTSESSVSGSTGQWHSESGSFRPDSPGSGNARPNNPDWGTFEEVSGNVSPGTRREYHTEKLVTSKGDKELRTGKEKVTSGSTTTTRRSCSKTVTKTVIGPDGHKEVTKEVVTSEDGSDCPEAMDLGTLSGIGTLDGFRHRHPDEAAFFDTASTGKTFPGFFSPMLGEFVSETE

[13] = target: B7; assay: Y2H 1x1 mating, binder AD fusion, target BD fusion
[14] = target: B2; assay: Y2H 1x1 mating, binder AD fusion, target BD fusion
[15] = target: B10; assay: Y2H library screen, binder bait, target prey

B1: STAU (Genbank ID: AF061939) (other, human, UniProt O95793 6-577, looked up)
chain: VQVQNPSAALSGSQILNKNQSLLSQPLMSIPSTTSSLPSENAGRPIQNSALPSASITSTSAAAESITPTVELNALCMKLGKKPMYKPVDPYSRMQSTYNYNMRGGAYPPRYFYPFPVPPLLYQVELSVGGQQFNGKGKTRQAAKHDAAAKALRILQNEPLPERLEVNGRESEEENLNKSEISQVFEIALKRNLPVNFEVARESGPPHMKNFVTKVSVGEFVGEGEGKSKKISKKNAAIAVLEELKKLPPLPAVERVKPRIKKKTKPIVKPQTSPEYGQGINPISRLAQIQQAKKEKEPEYTLLTERGLPRRREFVMQVKVGNHTAEGTGTNKKVAKRNAAENMLEILGFKVPQAQPTKPALKSEEKTPIKKPGDGRKVTFFEPGSGDENGTSNKEDEFRMPYLSHQQLPAGILPMVPEVAQAVGVSQGHHTKDFTRAAPNPAKATVTAMIARELLYGGTSPTAETILKNNISSGHVPHGPLTRPSEQLDYLSRVQGFQVEYKDFPKNNKNEFVSLINCSSQPPLISHGIGKDVESCHDMAALNILKLLSELDQQSTEMPRTGNGPMSVCGRC
notes: range 6-578; Prey from brain library; also called Staufen
binding result [1]: no binding

Binder: B2
binding result [2]: no binding
binding result [3]: no binding
binding result [4]: no binding
binding result [5]: no binding

binding result [6]: no binding
B3: S100A1-1 (other, human, UniProt P23297 1-94, looked up)
chain: MGSELETAMETLINVFHAHSGKEGDKYKLSKKELKELLQTELSGFLDAQKDVDAVDKVMKELDENGDGEVDFQEYVVLVAALTVACNNFFWENS
notes: Full-length bait; also called full length S100A1

binding result [7]: binds
binding result [8]: no binding
B4: SYN4 (Genbank ID: u07158) (other, human, UniProt Q12846 158-297, looked up)
chain: RQLKITNAGMVSDEELEQMLDSGQSEVFVSNILKDTQVTRQALNEISARHSEIQQLERSIRELHDIFTFLATEVEMQGEMINRIEKNILSSADYVERGQEHVKTALENQKKARKKKVLIAICVSITVVLLAVIIGVTVVG
notes: Prey from brain and muscle libraries; also called Syntaxin 4
binding result [9]: no binding

binding result [11]: binds
binding result [12]: no binding
binding result [13]: binds
B5: S100B-1 (other, human, UniProt P04271 1-92, looked up)
chain: MSELEKAMVALIDVFHQYSGREGDKHKLKKSELKELINNELSHFLEEIKEQEVVDKVMETLDNDGDGECDFQEFMAFVAMVTTACHEFFEHE
notes: Full-length bait; also called full length S100B
binding result [10]: binds

Binder: B6
binding result [2]: no binding
binding result [4]: no binding
binding result [5]: no binding

Binder: B7
binding result [3]: no binding
binding result [4]: no binding
binding result [14]: no binding

Binder: B8
binding result [15]: binds

Binder: B9
binding result [2]: no binding

Binder: B10
binding result [9]: no binding
